One substance from patent US20190002553A1 can be followed below.

Test [1] addresses human IL-11 (Interleukin 11) (human) (UniProt P20809). In words: cell-based or functional assay.
In another test the target is murine IL-11 (mouse) (UniProt P47873). In words: cell-based or functional assay.
UniProt P47873, sequence (P47873 22-199 limits assumed): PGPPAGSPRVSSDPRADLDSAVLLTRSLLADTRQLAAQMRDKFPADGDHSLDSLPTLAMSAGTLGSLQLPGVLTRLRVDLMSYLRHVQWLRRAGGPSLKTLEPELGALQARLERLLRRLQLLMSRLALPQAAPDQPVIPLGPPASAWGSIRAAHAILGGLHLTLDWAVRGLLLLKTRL

UniProt P20809, sequence (P20809 22-199 limits assumed): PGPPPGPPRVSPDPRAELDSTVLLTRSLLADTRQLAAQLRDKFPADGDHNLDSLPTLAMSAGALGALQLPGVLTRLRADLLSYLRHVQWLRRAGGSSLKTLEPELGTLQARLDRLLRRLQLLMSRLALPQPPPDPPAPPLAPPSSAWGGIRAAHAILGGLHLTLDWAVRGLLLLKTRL

As to “neutralising anti-human IL-11 monoclonal antibody (Monoclonal Mouse IgG2A; Clone #22626; Catalog No. MAB218; R&D Systems)”, in test [1], the percentage of activated (αSMA-positive) fibroblasts, TGFβ1-stimulated human atrial fibroblasts stood at 28.3%; the percentage of activated fibroblasts normalised to non-stimulated cultures (=1) (fold of non-stimulated cultures) was 0.99; the percentage of activated fibroblasts, TGFβ1-stimulated human atrial fibroblasts, relative to unstimulated cultures was 0.89 fold. In the test with murine IL-11 (mouse), the percentage of activated fibroblasts normalised to non-stimulated cultures (=1) (fold of non-stimulated cultures) is 1.24; the percentage of activated fibroblasts, TGFβ1-stimulated mouse atrial fibroblasts, relative to unstimulated cultures worked out at 1.44 fold; the percentage of activated fibroblasts, TGFβ1-stimulated mouse dermal fibroblasts was 39.4%.
